Results on six molecules are retold here after patent US20140248710, “THREE-COMPONENT BIOSENSORS FOR DETECTING MACROMOLECULES AND OTHER ANALYTES” (Mediomics LLC, published 2014).

Series [1] addresses T1, Thrombin (UniProt P00734;P00734 P00734:328-363,P00734:364-622). The series is described as follows: competition; does not compete with THR2 (binds the other exosite); poor competitor of beacon complex compared with bivalent constructs.
In series [2] the target is T1, Thrombin. The series is described as follows: EMSA; high affinity; among most efficient competitors (FIG. 16). On the technique in general: In EMSA bound probe runs differently from free probe, usually more slowly.
The target in series [3] is Single-stranded DNA binding protein (SSB) (Escherichia coli, UniProt P0AGE0 P0AGE0:2-178). The series is described as follows: FP; nanomolar concentrations, similar range as thrombin. The settings on record: tags: Sigma; chain copies: 4; label: 5' fluorescein.
Single-stranded DNA binding protein (SSB), sequence (P0AGE0 2-178, one chain of several): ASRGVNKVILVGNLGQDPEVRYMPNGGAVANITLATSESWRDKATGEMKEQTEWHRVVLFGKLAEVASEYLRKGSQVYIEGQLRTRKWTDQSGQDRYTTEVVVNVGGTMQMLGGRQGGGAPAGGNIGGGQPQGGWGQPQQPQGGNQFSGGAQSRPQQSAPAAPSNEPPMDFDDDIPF
In series [4] the target is T1, Thrombin. The series is described as follows: FP; nanomolar range only.
The target in series [5] is T1, Thrombin. The series is described as follows: fluorescence intensity titration; 50 mM Tris pH 7.5, 100 mM NaCl, 5 mM KCl, 1 mM MgCl2.
Series [6] addresses T1, Thrombin. The series is described as follows: competition; affinity relative to THR2.

Consider AGTCCGTGGTAGGGCAGGTTGGGGTGACT (ssDNA) [THR3 (60-18 [29])], for which the binding result in series [1] was “binds”.

B1: THR18/THR19 bivalent (structured_DNA)
DNA 1: GGTTGGTGTGGTTGGTTTTTTTTTTTTTTTTTTTTTTTTTTTCTGTCGTTAGTGAAGGTT
DNA 2: AACCTTCACTAACGACAGTTTTTTTTTTTTTTTTTTTTTTTTTTTAGTCCGTGGTAGGGCAGGTTGGGGTGACT
B1: the binding result in series [2] was “binds”.

With AGTCCGTGGTAGGGCAGGTTGGGGTGACT (ssDNA) [THR1 (60-18 [29])], the binding result in series [3] and in series [4] was “binds” in each case.

The Kd is the free concentration of one partner at which half of the binding sites on the other are occupied at equilibrium, for simple one-to-one binding. A low value points to tighter binding. In the case of GGTTGGTGTGGTTGG (ssDNA) [THR2 (G15D)], the Kd in series [5] is 6.3 nM.

B2: THR16/THR17 bivalent (structured_DNA)
DNA 1: GGTTGGTGTGGTTGGTTTTTTTTTTTTTTTTTCTGTCGTTAGTGAAGGTT
DNA 2: AACCTTCACTAACGACAGTTTTTTTTTTTTTTTTTAGTCCGTGGTAGGGCAGGTTGGGGTGACT
Regarding B2, the binding result in series [2] is “binds”.

GGTTGGTGTGGTTGG (ssDNA) [THR4 (G15D)] showed a binding signal in series [6] of 1.7 fold.
